Experimental data as given in patent US20250051449A1 (SURFACE ONCOLOGY, published 2025).
Numbering of substitutions follows the chain as printed. Blank lines part the entries; values can stand above or below the binder they belong to.

Legend:
[1] = target: T1, human CD112R expressed on Jurkat cells (human, UniProt Q6DKI7 1-326); experiment: flow cytometry, wild type Jurkat cells, 0.63 ug/mL antibody
T1 construct: whole, on cells; Used for both Jurkat-CD112R OE cells and wild type Jurkat cells; which cells is said under assay; also called PVRIG; Jurkat-CD112R OE
T1 sequence (looked up): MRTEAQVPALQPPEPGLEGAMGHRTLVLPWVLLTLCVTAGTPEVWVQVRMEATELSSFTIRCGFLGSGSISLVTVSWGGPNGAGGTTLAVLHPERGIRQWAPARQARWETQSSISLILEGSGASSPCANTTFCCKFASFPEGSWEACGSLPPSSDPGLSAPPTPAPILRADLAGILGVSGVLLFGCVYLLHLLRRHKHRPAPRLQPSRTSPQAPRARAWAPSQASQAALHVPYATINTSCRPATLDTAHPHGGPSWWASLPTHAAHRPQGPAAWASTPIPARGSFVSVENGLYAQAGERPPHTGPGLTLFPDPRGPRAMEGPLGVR
Procedure: (§1) The ability of anti-CD112R antibodies to bind to CD112R expressed on cells was evaluated. 1×10⁵ Jurkat cells (acute T cell leukemia cell line, ATCC #TIB-152) that were either wild type or engineered to over-express human CD112R (Jurkat-CD112R OE) were added to each well of a 96-well V bottom plate and stained with either anti-CD112R antibodies or an IgG1 isotype control (0.63 μg/mL) for 1 hour at 4° C. Cells were washed twice with PBS+2% FCS and resuspended with Alexa Fluor® 647 anti-human IgG Fc antibody (Biolegend, Cat #409320) diluted 1:100 in PBS+2% FCS and incubated at 4° C. for 30 minutes. Cells were subsequently washed twice and resuspended in PBS+2% FCS. Cellular data was acquired using a LSRFortessa X-20 (BD Biosciences) and analyzed with FlowJo software (Tree Star).

[2] = target: T2, CD112R-hIgG4 fusion protein (human, UniProt Q6DKI7 41-171, limits assumed); experiment: blocking ELISA: coated CD112R-hIgG4, antibody, then biotinylated CD112 Fc
T2 construct: also called human CD112R-hIgG4; not shown: human IgG4 portion (hIgG4)
T2 sequence (looked up): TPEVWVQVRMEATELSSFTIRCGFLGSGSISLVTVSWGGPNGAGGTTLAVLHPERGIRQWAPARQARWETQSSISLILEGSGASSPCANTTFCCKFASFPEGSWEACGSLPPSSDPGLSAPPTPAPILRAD
Procedure: The ability of anti-CD112R antibodies to block human CD112R was also evaluated by ELISA. Briefly, 96 well Nunc Maxisorp plates were coated with 1 μg/mL of a CD112R-hIgG4 fusion protein in PBS overnight at 4° C. […] After blocking, plates were washed 6× with PBST. Next, 100 μl of anti-CD112R antibodies in PBS+1% BSA was added at a final starting concentration of 10 μg/mL, with 4-fold serial dilutions. Plates were incubated at room temperature for 1.5 hours. Next plates were washed 6× with PBST and then incubated with 1 μg/ml CD112 Fc protein (R&D Systems, Cat #9317-N2-050) that was biotinylated with a sulfo-NHS biotinylation kit (Thermo Fisher, Cat #21925) in 100 μl of PBS+1% BSA for 1 hour at room temperature. Plates were then washed 6× with PBST and subsequently incubated with streptavidin-HRP (Biolegend, Cat #405210) diluted in PBS+1% BSA according to the manufacturer recommendation for 1 hour at room temperature. Following this incubation, plates were then washed 6× with PBST and developed with TMB substrate (Life Technologies, Cat #002023). The reaction was stopped with an equal volume of stop solution (Life Technologies, Cat #SS04). Absorbance at 450 nm (O.D. 450) was measured on a SpectraMax plate reader.
Results are depicted in FIG. 2B and Table 2. […] Percent inhibition was calculated as [100−((test sample O.D. 450/Max 0.D. 450)*100%)] Max O.D. 450 was defined as absorbance at 450 nm in the absence of antibody.

[3] = target: T1, human CD112R expressed on Jurkat cells; experiment: flow cytometry, Jurkat cells over-expressing human CD112R, 0.63 ug/mL antibody
Procedure: as §1
Results are depicted in FIG. 1. Quantitation of antibody binding to Jurkat-CD112R OE cells was assessed by the geometric mean fluorescent intensity (gMFI) of the Alexa Fluor® 647 signal.

[4] = target: T1, human CD112R expressed on Jurkat cells; experiment: flow cytometry competition on Jurkat-CD112R OE cells; competitor biotinylated his-tagged human CD112
Procedure: The ability of anti-CD112R antibodies to block CD112 binding to CD112R expressing cells was evaluated. 1×10⁵ Jurkat cells (acute T cell leukemia cell line, ATCC #TIB-152) that were engineered to over-express human CD112R (Jurkat-CD112R OE) were added to each well of a 96-well V bottom plate and stained with serial dilutions of either anti-CD112R antibodies or an IgG1 isotype control (highest concentration, 10 μg/mL) for 1 hour at 4° C. Cells were washed twice with PBS+2% FCS and resuspended with biotinylated his-tagged human CD112 (3 μg/mL) (BPS Bioscience, #71234) and PE Streptavidin (5 μg/mL) (Biolegend, #405204) in PBS+2% FCS and incubated at 2 hours at 4° C. Cells were subsequently washed twice and resuspended in PBS+2% FCS. Cellular data was acquired using a LSRFortessa X-20 (BD Biosciences) and analyzed with FlowJo software (Tree Star).
Results are depicted in FIG. 2A and Table 2. […] Percent inhibition was calculated as [100−((test sample MFI/Max MFI)*100%)]

gMFI (fold increase over isotype) [1]: 4.8 fold increase over isotype | CD112 blocking max inhibition ELISA (%) [2]: 96.8% | gMFI (fold increase over isotype) [3]: 46.9 fold increase over isotype | CD112 blocking max inhibition (%) [4]: 97.7% | IC50 [4]: 0.81 ng/mL
B1: Antibody 44 (antibody, V domains shown)
VH: QVQLVQSGAEVKKPGSSVKVSCKASGGTFDNYYISWVRQAPGQGLEWMGGIFPIFGTANYAQKFQGRVTITADESTSTAYMELSSLRSEDTAVYYCAREVGHYSGSPYYMDVWGKGTTVTVSS
VL: DIQMTQSPSTLSASVGDRVTITCRASQSINSWLAWYQQKPGKAPKLLISDASSLESGVPSRFSGSGSGTEFTLTISSLQPDDFATYYCQQVGPYLTFGGGTKVEIK
notes: Purified as IgG; compared with an IgG1 isotype control and detected with anti-human IgG Fc; also called antibody clone number 44; clone 44

gMFI (fold increase over isotype) [1]: 3.8 fold increase over isotype | CD112 blocking max inhibition ELISA (%) [2]: 97.2% | gMFI (fold increase over isotype) [3]: 51.7 fold increase over isotype | CD112 blocking max inhibition (%) [4]: 95.5% | IC50 [4]: 0.19 ng/mL
B2: Antibody 38 (antibody, V domains shown)
VH: EVQLLESGGGLVQPGGSLRLSCAASGFTFSGHLMSWVRQAPGKGLEWVSAISGSAGETYYADSVKGRFTISRDNSKNTLYLQMNSLRAEDTAVYYCARDAYYDDWSGWADWYFDLWGRGTLVTVSS
VL: EIVLTQSPATLSLSPGERATLSCRASQSVSRYLAWYQQKPGQAPRLLIYDASNRATGIPARFSGSGSGTDFTLTISSLEPEDFAVYYCQQVSLLPPTFGGGTKVEIK
notes: Purified as IgG; compared with an IgG1 isotype control and detected with anti-human IgG Fc; also called antibody clone number 38; clone 38

gMFI (fold increase over isotype) [1]: 4 fold increase over isotype | CD112 blocking max inhibition ELISA (%) [2]: 97% | gMFI (fold increase over isotype) [3]: 53.2 fold increase over isotype | CD112 blocking max inhibition (%) [4]: 97.9% | IC50 [4]: 0.51 ng/mL
B6: Antibody 15 (antibody, V domains shown)
VH: EVQLVESGGGLVQPGRSLRLSCTASGFTFGDVAMSWFRQAPGKGLEWVGYIGSKAYGGETEYTASVKGRFTISRDGSKSIAYLQMNSLKTEDTAVYYCARAGHSYGSIASNWFDPWGQGTLVTVSS
VL: DIQMTQSPSSLSASVGDRVTITCRASQSISSYLNWYQQKPGKAPKLLIYGASSLQSGVPSRFSGSGSGTDFTLTISSLQPEDFATYYCQQGFYTPWTFGGGTKVEIK
notes: Purified as IgG; compared with an IgG1 isotype control and detected with anti-human IgG Fc; also called antibody clone number 15; clone 15

Second part, the binder before the results:

B3: Antibody 10 (antibody, V domains shown)
VH: EVQLVESGGGLVQPGRSLRLSCAASGFTFDDYAVHWVRQAPGKGLEWVSGISWSSGLIGYADSVKGRFTISRDNAKNSLYLQMNSLRAEDTAVYYCAKGPPTYQDYFDLWGRGTLVTVSS
VL: EIVLTQSPATLSLSPGERATLSCRASQSVSRYLAWYQQKPGQAPRLLIYDASNRATGIPARFSGSGSGTDFTLTISSLEPEDFAVYYCQQVSFFPPITFGGGTKVEIK
notes: Purified as IgG; compared with an IgG1 isotype control and detected with anti-human IgG Fc; also called antibody clone number 10; clone 10
gMFI (fold increase over isotype) [1]: 4.6 fold increase over isotype | CD112 blocking max inhibition ELISA (%) [2]: 96.3% | gMFI (fold increase over isotype) [3]: 55.7 fold increase over isotype | CD112 blocking max inhibition (%) [4]: 96.8% | IC50 [4]: 0.69 ng/mL

B4: Antibody 2 (antibody, V domains shown)
VH: EVQLVESGGGLVKPGGSLRLSCAASGFTFSEYTMNWVRQAPGKGLEWVSAIVGSGDSTYYADSVKGRFTISRDNSKNTLYLQMNSLRAEDTAVYYCAKDYSSGDWIDYGMDVWGQGTTVTVSS
VL: DIQMTQSPSSLSASVGDRVTITCQASQDISNYLNWYQQKPGKAPKLLIYDASNLATGVPSRFSGSGSGTDFTFTISSLQPEDIATYYCQQFDLLPPTFGGGTKVEIK
notes: Purified as IgG; compared with an IgG1 isotype control and detected with anti-human IgG Fc; also called antibody clone number 2; clone 2
gMFI (fold increase over isotype) [1]: 4.7 fold increase over isotype | CD112 blocking max inhibition ELISA (%) [2]: 97% | gMFI (fold increase over isotype) [3]: 63.9 fold increase over isotype | CD112 blocking max inhibition (%) [4]: 94.1% | IC50 [4]: 0.83 ng/mL

B5: Antibody 5 (antibody, V domains shown)
VH: B4 VH with V5L, K13Q, E31D, T33A, N35I, V52S, S54G, D56E
VL: B4 VL
notes: Purified as IgG; compared with an IgG1 isotype control and detected with anti-human IgG Fc; also called antibody clone number 5; clone 5
gMFI (fold increase over isotype) [1]: 3.8 fold increase over isotype | CD112 blocking max inhibition ELISA (%) [2]: 97.4% | gMFI (fold increase over isotype) [3]: 63.3 fold increase over isotype | CD112 blocking max inhibition (%) [4]: 97% | IC50 [4]: 0.17 ng/mL
